# Laboratory results taken from the nanobody polyreactivity screen of Harvey et al. (2022).
# Test: yeast display, Sf9 membrane polyspecificity reagent, FACS + sequencing; frameworks hold sequencing errors
# Method in brief: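 Synthetic nanobody libraries on Saccharomyces cerevisiae BJ5465 were galactose-induced for 36–48 hours, stained 1 hour at 4 °C with 10% biotinylated, detergent-solubilized Sf9 membrane reagent and enriched on streptavidin microbeads. FACS then separated cells into low and high (top ~1%) gates by anti-HA (expression) and streptavidin (reagent binding) fluorescence. Genes were colony-PCR amplified, MiSeq 2 × 250 sequenced and CDR-length filtered. A clone's polyreactivity label is that of its gate of origin.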
row,Sequence,polyreactivity (PSR sort gate)
1,QVQLVESGGGLVQAGGSLRFSCAASGSTFSYYDMGWYRQAPGKEREMVAAISWNGGTTFYADSVKGRFTISRDNAMNTVYLQMKSLKPEDTAVYYCAVTGFEVLWPSLGGELDYWGQGTQVTVSS,low polyreactivity
2,QVQLVESGGGLVQAGGSLRFSCAASGSTFYSYAMGWYRQAPGKERELVAGITGNDGSTYYADSVKGRFTISRDNAKNTVYLQMNSLKPEDTAVYYCNTDASPYLFDYWGQGTQVTVSS,low polyreactivity
3,QVQLVESGGGLVQAGGSLRFSCAASGTFYYYAMGWYRHAPGKERELVAAISYSGGRTYYADSVKGRFTISRDNAKNTVYLQMNSLKPEDTAVYYCNALYRKTPSYGADDYWGQGTQVTVSS,high polyreactivity
4,QVQLVESGGGLVQAGGSLRFSCAGSGSTFRNYAMGWYRQAPGQERAFVATISSAGGTTYYADSVKGRFTISRDKAKNTLYVQMNSLNPEDTAVYYCAADQHSYRYGGYYYWGQGTQVTVSS,low polyreactivity
5,QVQLVESGGGLVQAGGSLRFSCSASGSIFNYYTMGWYRQAPGKERELVAVITSGGSTYYADSVKGRFTISRDNAKNTVYLQMNSLKPEDTAVYYCAAKRRSYLKQGYSVGYWGQGSQVTVSS,high polyreactivity
6,QVQLVESGGGLVQAGGSLRFSCSAYGSILPGYAMGWYRQAPGKERELVDAISYRGTSTYYADSVKGRFTISRDNAKNTVYLQMNSLKPEDTAVYYCAAGGSWFSYPPRMDYWGQGTQVTVSS,high polyreactivity
7,QVQLVESGGGLVQAGGSLRFTFGATGIIFYRNTMGWYSLAPGKHRELVASLSRGGSTNYADSVKGRFTISRDNAKTTVYLQMNRLKPEDTAVDYCAAYTDIPLSYYRGYTMDYWGQGTQVTVSS,low polyreactivity
8,QVQLVESGGGLVQAGGSLRICCADSGLTFRFYSSGWYRQAPGKEMELVAAISRSGGSTYYADSVKGRFTISRDNAKNTVYLQMNSLKPEDSAVYYCAAGRRGGKHGGTRGGDYWGQGTQVTVSS,high polyreactivity
9,QVQLVESGGGLVQAGGSLRIICAASGRIFSKYARGWYRQAPGKERELVAAISSRGGNTYYADSVKGRFTISRDNAKNTVYLQMTSLKPEDTAVYFCAAGYYYTGYEYDYWGQGTQVTVSS,high polyreactivity
10,QVQLVESGGGLVQAGGSLRIICAASGRIFTFYAMGWYRQATGKARELVASIRSSTYYADSVKGRFTISRDNAKYTVYLQMNSLKPEDTALYYCNVRLSYSYISPSDWNFDYWGQGTQVTVSS,low polyreactivity
11,QVQLVESGGGLVQAGGSLRIICAASGSTFTWNDMRWYRQAPGKERELVAGISLSAGSTYYADSVKGRFTISRDNAKNTDYLQMKSLKPEHTAVYYCNADPGGPDTYEEHDYWGQGTQVTVSS,low polyreactivity
12,QVQLVESGGGLVQAGGSLRIISAASGSTFTRYTMGWYRQAPGKEMEFVAAISFSGGSTYYADSVKGRFTIARDNAKNTVYLEMNSLKPEDTAVYYCAASAHCYRPARDYWGQGTQVTVSS,low polyreactivity
13,QVQLVESGGGLVQAGGSLRIRCAASGRIFRTNAMGWYRQAPGKERELVAAISDSGADTSYADSVKGRFSISRDNAKNTDYLQMNSLKPEDTAVDYCNRGRVYYRYLKDYDYWGQGTQVTVSS,low polyreactivity
14,QVQLVESGGGLVQAGGSLRIRCAASGSTFKTYTMGWYRQAPGKERELVAGITSGGSTSYADSVKGRFTISRDNAKNTVYLQMNSLKPEVTAVYYCAAAEGGGLVTYDYCGQGTQVTVSS,low polyreactivity
15,QVQLVESGGGLVQAGGSLRISCAASAHIFDYNAMGWYRQAPGKERELVAAITSGGTTTYADSVKGRFTISRDNAKNTVDLQMNSLKPEDTAVYYCNTYGQTDTYWRYYYWGQGTQVTVSS,high polyreactivity
16,QVQLVESGGGLVQAGGSLRISCAASGFIFPFYAMGWYRQAPVKERELVATITSGGSTNYADSVKGRFTISRDNAKNTVYLQMNSQKPEDTAVYYCAAVIVPYGPSTFRVVGLDYWGQGTQVTVSS,low polyreactivity
17,QVQLVESGGGLVQAGGSLRISCAASGFIFRQYAMGWYRQAPGKERELVAAISRSGGSTYYADSVKGRFTISRDNAKNTVYLQMNSLKPEDTAVYYCNAVPRKYTDEFDYWGQGTQVTVSS,high polyreactivity
18,QVQLVESGGGLVQAGGSLRISCAASGFSFVWYAMGWYRQAPGKERELVAAINWSGGHTYYADSVKGRFTISRDNAKNTVYLQMNSQKPVETAVYYCNADSLWYWFYPYNYWGQGTQVTVSS,low polyreactivity
19,QVQLVESGGGLVQAGGSLRISCAASGFTFHSYAMGWYIQAPGKERELVDAISYSGGSTYYADSVKGRFTISRDNAKNTVYLQMNSLKPEDSAVYYCAVLRYIYGYANDYWGQGTQLTVSS,low polyreactivity
20,QVQLVESGGGLVQAGGSLRISCAASGFTFRANAMGWYRQAPGKEREVVAAISQSGGRTYYADSVKARFTISRDNAKNTVYLQMNSLKPEDTAVYDCAAPDSAKELYYRMDYWGQGTQVTVSS,high polyreactivity
21,QVQLVESGGGLVQAGGSLRISCAASGFTFSSYAMGRSRPAPGKERELVAGITIDGNTYYADSVKGRFTISRDNAKNTVYLQMNSLKPEDTAVYYCAAVAYYYGYDYWGQGTQVTVSS,low polyreactivity
22,QVQLVESGGGLVQAGGSLRISCAASGFTFSYNTMGWYRQAPGKERELVAAITGDVSTNYADSVKGRFTISRDNAKNTVYLQMNSLKPEDTAVYYCAARPNFPGYEDLSVDFEYWGQGTQGTVSS,low polyreactivity

row,Sequence,polyreactivity (PSR sort gate)
1,QVQLVESGGGLVQAGGSLRISCAASGFTFVINEMGWYRPAPGKERELVADITSGGDTYYADSVKGRFTISRDNAKNTVYLQMNSLKPEDTAVYYCAAYIYPDWIYLLYGYWGQGTQVTVSS,low polyreactivity
2,QVQLVESGGGLVQAGGSLRISCAASGFTFYTNAMGWYIQAPGKERELVAAISSGGSTNYADSVKGRFTISRDNAKNTVYLQMNSLQPEDSAVYYCAARRGYWGQGTQVTVSS,high polyreactivity
3,QVQLVESGGGLVQAGGSLRISCAASGGIFWTYAMGWYRQEPGKERELVAAISYSDGITYYADSVKGRFTISRDNAKNTVYFQMNSLKPEDTAVYYCAADPELAVPMYYWGQGTQVTVSS,low polyreactivity
4,QVQLVESGGGLVQAGGSLRISCAASGINFVTYAMGWYRKAPGKEREFVASINWITGNTYYADSVKGRFTISRDNAKNTVYLQMNSLKPEDTAVYYCATVDWSLYLGTPPSYYWGQGTQVTVSS,low polyreactivity
5,QVQLVESGGGLVQAGGSLRISCAASGITFAWYAMGWYRQAPGKERELVATISAGGAITYYADSVKGRFTISRDNAKNTVYLQMNSLKPEDTAVYYCNAVTYGPYGWGQGTQVTVSS,high polyreactivity
6,QVQLVESGGGLVQAGGSLRISCAASGITFPVYTMGWYRQAPGKERELVAAITSSGGSTYYADSVKGRFTISRDNAKNTVYLQMNSLKPEDTAVYYCAARDYGRHHTYGYWGQGTQVTVSS,high polyreactivity
7,QVQLVESGGGLVQAGGSLRISCAASGITFVPNAMGWYRQAPGKERELVAAITGNGGRTYYADSVKGRFTISRDNAKNTVYLQMNSLKPEDTAVYYCNARKLYWAYTLRKYDYWGQGTQVTVSS,high polyreactivity
8,QVQLVESGGGLVQAGGSLRISCAASGITLINDAMGWYRQAPGKERELVAAITYRGVSTYYADSVKGRFTISRDNAKNTVYLQMKSLKPEDTAVYYCAAGYYWQYTSSSAQYSYDYWGQGTQVTVSS,low polyreactivity
9,QVQLVESGGGLVQAGGSLRISCAASGLIFAIYAMGWYRQAPGKERELVAAIRWSGASTYADSVKGRFTISRDNAKNTVYLQMNSLKAEDTAVYYCAADDLLDYDNWGQGTQVTVSS,low polyreactivity
10,QVQLVESGGGLVQAGGSLRISCAASGLIFYGYVMGWYRQAPGKEREFVAAITLSGGRTYYADSVKGRFTISRDNAKNTVYLQMNSLKPEDTAVYYCAARGPFRPYGAVGRQYDYWGQGTQVTVSS,high polyreactivity
11,QVQLVESGGGLVQAGGSLRISCAASGLTFADNAMGWYRQAPGKERELVAAISRSGSRTYYADSVKGRFTISRDNAKNTVYLQMNSLKPEDTAVYYCNAVWWYYRVFDYWGQCTQVTVSS,high polyreactivity
12,QVQLVESGGGLVQAGGSLRISCAASGLTFTDYAIGWYRQAPGKERELVAGIWDGGSTYYADSVKGRFTISRDNAKNTVYLQMNSLKAEDTAVYSCAVRTSRLLREFGYSYWGQGTQVTVSS,high polyreactivity
13,QVQLVESGGGLVQAGGSLRISCAASGLTFTSNVMGWYRQAPGKERELVAAISSGGSTYYADSVKGRFTISRDNAKNTVYLQMNSLKPEDTAVYYCNTKLWGQYDYWGQGTQVTVSS,low polyreactivity
14,QVQLVESGGGLVQAGGSLRISCAASGLTFYYNAMGWYRQAPGKDRELVATITWRGGRTYYADSVKGRFTISRDNAKNTVYLQMNCLKPEDTAVYYCAAGYFSQRLYLWFGYWGQGTQVTVSS,high polyreactivity
15,QVQLVESGGGLVQAGGSLRISCAASGNIFYRNGMGWYRQAPGKEREFVAAISRRGGSTYYADSVKGRFTISRDNAKNTVYLQMNSLKTEDTAVYYCATRYWPTNKGEYWGQGTQLTVSS,high polyreactivity
16,QVQLVESGGGLVQAGGSLRISCAASGNTFEHNAMGWYRQAPGKERELVAVISKSGGRTYYADSVKGRFTISRDNAKNTVYLQMNSLKPEDTAVYYCAKRSPFITWNGISYVEYDYWGPGTQVTVSS,low polyreactivity
17,QVQLVESGGGLVQAGGSLRISCAASGNTFGDYAMGWYRQAPGKERELVAAISRSGGSTSYADSVKGRFTISRDNAKNTVYLQMNSLKPEDTAVYYCAGYWQRFGYDYWGQGTLVTVSS,low polyreactivity
18,QVQLVESGGGLVQAGGSLRISCAASGRICIYYTMGWYRQAPGKDREFVAAITYSGGSTRYADSVKGRFTISRDNAKNTVYFQMNSLKTEVTAVYYCAAKFSVRRGFDYWGQGTQVTVSS,low polyreactivity
19,QVQLVESGGGLVQAGGSLRISCAASGRIFDYYAMGWYRQAPGKERELVAAISYSGGSTHYADSVKGRFTISRDNAKNTVYLQMNSLKPEDTAVYYCAGWAWSGVEYDYWGQGTQVTVSS,low polyreactivity
20,QVQLVESGGGLVQAGGSLRISCAASGRIFFTYVKGWYRQAPGKERELVATIRVSGGSTYYADSVKGRYTISRDNAKKTVYLQMNSLKPEDTAVYYCAASGAWWSLHYAGDFWGQGTQVTVSS,high polyreactivity
21,QVQLVESGGGLVQAGGSLRISCAASGRIFGYYGMGWSRQAPGKERELVAAITSNAGRTYYADSVKGRFTISRDNSKNTVYLQMNSLKPEDTAVYYCAATSKGSYGRQGYDYWGQGTQVTVSS,low polyreactivity
